Source: US20230406922A1

Columns and labels:
[1] = molecular target: human CD19, full length, on cells (human) (UniProt P15391); assay: FACS on CHO-K1-human CD19-1C4 cells
[2] = molecular target: human CD19, full length, on cells (human) (UniProt P15391); assay: FACS on CHO-K1-human CD19-2G4 cells
[3] = molecular target: human CD19, full length, on cells (human) (UniProt P15391); assay: FACS on CHO-K1-human CD19-1C9 cells
[4] = molecular target: monkey CD19, full length, on HEK293T cells (monkey); assay: FACS on HEK293T-monkey CD19 cells
[5] = molecular target: human CD19, full length, on cells (human) (UniProt P15391); assay: FACS on Raji cells (endogenous CD19)
[6] = molecular target: human CD19, full length, on cells (human) (UniProt P15391); assay: FACS on CHO-K1-human CD19-2C8 cells
[7] = molecular target: human CD19, full length, on cells (human) (UniProt P15391); assay: FACS on CHO-K1-human CD19 cells
[8] = molecular target: human CD19, full length, on cells (human) (UniProt P15391); assay: FACS on Raji cells
[9] = molecular target: cynomolgus monkey CD19 on peripheral blood B cells (cynomolgus monkey (Macaca fascicularis)); assay: FACS on cynomolgus monkey PBMC, gated on CD20-positive B cells
[10] = molecular target: murine CD19 protein (murine) (UniProt P25918); assay: ELISA, murine CD19 coated
[11] = molecular target: human CD19-his protein (human) (UniProt P15391); assay: ELISA, human CD19-his coated at 4 ug/mL

Chain of murine CD19 protein (murine) (P25918 19-287 limits assumed): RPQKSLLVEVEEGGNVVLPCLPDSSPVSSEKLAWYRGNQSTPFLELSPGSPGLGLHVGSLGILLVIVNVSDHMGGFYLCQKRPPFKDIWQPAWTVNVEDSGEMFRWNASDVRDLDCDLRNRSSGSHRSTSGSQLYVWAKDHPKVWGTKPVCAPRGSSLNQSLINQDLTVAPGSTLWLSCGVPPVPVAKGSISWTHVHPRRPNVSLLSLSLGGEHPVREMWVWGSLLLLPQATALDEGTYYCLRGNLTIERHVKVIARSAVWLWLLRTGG

IgG subtype control (antibody)
mean fluorescence intensity of cells [1]: 50 MFI | mean fluorescence intensity of cells [2]: 50 MFI | mean fluorescence intensity of cells [3]: 50 MFI | mean fluorescence intensity of cells [4]: 62 MFI | mean fluorescence intensity of cells [5]: 78 MFI | mean fluorescence intensity of cells [6]: 50 MFI

negative control antibody mIgG1 (anti-hel-mIgG1, antibody against hen egg lysozyme)
maximum mean fluorescence intensity [7]: 102 MFI | maximum mean fluorescence intensity [8]: 382 MFI | proportion of positive cells to B cells (%) at 1 nM [9]: 3% | proportion of positive cells to B cells (%) at 10 nM [9]: 5% | proportion of positive cells to B cells (%) at 100 nM [9]: 11% | OD450 at 0.0001 nM [10]: 0.07 OD450 | OD450 at 0.001 nM [10]: 0.06 OD450 | OD450 at 0.01 nM [10]: 0.06 OD450 | OD450 at 0.10 nM [10]: 0.06 OD450 | OD450 at 1.00 nM [10]: 0.06 OD450 | OD450 at 10.00 nM [10]: 0.08 OD450 | OD450 at 100.00 nM [10]: 0.11 OD450 | maximum mean fluorescence intensity [4]: 165 MFI | OD450 at 0.0001 nM [11]: 0.11 OD450 | OD450 at 0.001 nM [11]: 0.12 OD450 | OD450 at 0.01 nM [11]: 0.11 OD450 | OD450 at 0.10 nM [11]: 0.11 OD450 | OD450 at 1.00 nM [11]: 0.11 OD450 | OD450 at 10.00 nM [11]: 0.12 OD450 | OD450 at 100.00 nM [11]: 0.15 OD450
